Starred links: 1 amine or outer side, 2 acyl side, 3 side chain; linkers in the order of their positions; H or OH if unused. Positions of bridges follow the written chain, without caps; N, C: chain ends. Non-standard residues stand in square brackets, D forms with d. Primed or numbered codes have the meaning given here. No end group written: not given here. *: point of attachment. TCAZ″ = 1,1',1''-(1,4,7-triazonane-1,4,7-triyl)tris(2-chloroethan-1-one) scaffold, O=C(C[*:1])N1CCN(C(=O)C[*:2])CCN(C(=O)C[*:3])CC1; TCAZ = 1,1',1''-(1,4,7-triazonane-1,4,7-triyl)tris(2-chloroethan-1-one); TATA = O=C(CC[*:1])N1CN(C(=O)CC[*:2])CN(C(=O)CC[*:3])C1; 1Nal = N[C@@H](Cc1cccc2ccccc12)C(=O)O; Pent4ynoyl = C#CCCC(=O)*
Key:
[1] = target: T1, Recombinant biotinylated human P-Selectin protein (human, UniProt P16109 42-771, limits assumed, biotinylated (site not stated)); assay: SPR (Biacore), biotinylated human P-selectin captured on streptavidin chip, peptide as analyte; peptide BCY12257, a separate peptide number
T1 sequence (looked up): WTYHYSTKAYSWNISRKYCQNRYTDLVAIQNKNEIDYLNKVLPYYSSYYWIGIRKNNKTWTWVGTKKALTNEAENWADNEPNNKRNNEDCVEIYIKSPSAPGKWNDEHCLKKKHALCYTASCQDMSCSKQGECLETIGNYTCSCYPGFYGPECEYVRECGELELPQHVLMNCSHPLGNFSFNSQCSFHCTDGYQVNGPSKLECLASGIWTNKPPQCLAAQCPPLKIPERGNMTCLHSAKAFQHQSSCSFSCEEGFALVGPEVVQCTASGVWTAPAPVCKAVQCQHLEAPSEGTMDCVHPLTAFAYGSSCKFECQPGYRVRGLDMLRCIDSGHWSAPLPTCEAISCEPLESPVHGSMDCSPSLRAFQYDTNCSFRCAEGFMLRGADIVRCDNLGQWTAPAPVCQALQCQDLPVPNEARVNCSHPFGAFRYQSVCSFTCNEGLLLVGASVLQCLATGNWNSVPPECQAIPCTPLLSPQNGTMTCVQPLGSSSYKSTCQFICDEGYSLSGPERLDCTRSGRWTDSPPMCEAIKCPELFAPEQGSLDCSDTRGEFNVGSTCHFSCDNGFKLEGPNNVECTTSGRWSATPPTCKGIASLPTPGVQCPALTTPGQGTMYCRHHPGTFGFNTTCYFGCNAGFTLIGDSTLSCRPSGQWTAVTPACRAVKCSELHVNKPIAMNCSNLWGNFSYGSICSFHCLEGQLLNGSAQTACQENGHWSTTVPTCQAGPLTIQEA
Description: (§1) Biacore experiments were performed to determine ka (M−1s−1), kd (s−1), KD (nM) values of monomeric peptides binding to human Selectin proteins. Recombinant biotinylated human P-Selectin protein was used. For analysis of binding, either a Biacore 3000 or 5200 instrument was used with a CMS sensor chip (GE Healthcare). For sensor chip surface preparation, streptavidin was immobilized on the chip using standard amine-coupling chemistry at 25° C. with HBS-N (10 mM HEPES, 0.15 M NaCl, pH 7.4) as the running buffer. The carboxymethyl dextran surface was activated with a 12 min injection of a 1:1 ratio of 0.4 M 1-ethyl-3-(3-dim ethyl aminopropyl) carbodiimide hydrochloride (EDC)/0.1 M N-hydroxy succinimide (NHS) at a flow rate of 10 μl/min. For capture of streptavidin, protein was diluted to 0.2 mg/ml in 10 mM sodium acetate (pH 4.5) and captured by injecting 70 μl onto the activated chip surface. Residual activated groups were blocked with a 7 min injection of 1 M ethanolamine (pH 8.5). Biotinylated protein stock was diluted 1:100 in HBS-N and captured on one flow cell at 5 μl/min to a level of 1000-1500 RU. Buffer was changed to PBS/0.05% Tween 20 and a dilution series of the peptides was prepared in this buffer with a final DMSO concentration of 0.5%. […] In all cases a titration was performed with either seven 2-fold dilutions or five 3-fold dilutions. […]

[2] = target: T1, Recombinant biotinylated human …; assay: SPR (Biacore), biotinylated human P-selectin captured on streptavidin chip, peptide as analyte; peptide BCY5462, a separate peptide number
Description: as §1

[3] = target: T1, Recombinant biotinylated human …; assay: SPR (Biacore), biotinylated human P-selectin captured on streptavidin chip, peptide as analyte; peptide BCY12261, a separate peptide number
Description: as §1

[4] = target: T1, Recombinant biotinylated human …; assay: SPR (Biacore), biotinylated human P-selectin captured on streptavidin chip, peptide as analyte
Description: Biacore experiments were performed to determine ka (M−1s−1), kd (s−1), KD (nM) values of monomeric peptides binding to human Selectin proteins. Recombinant biotinylated human P-Selectin protein was used. For analysis of binding, either a Biacore 3000 or 5200 instrument was used with a CMS sensor chip (GE Healthcare). For sensor chip surface preparation, streptavidin was immobilized on the chip using standard amine-coupling chemistry at 25° C. with HBS-N (10 mM HEPES, 0.15 M NaCl, pH 7.4) as the running buffer. The carboxymethyl dextran surface was activated with a 12 min injection of a 1:1 ratio of 0.4 M 1-ethyl-3-(3-dim ethyl aminopropyl) carbodiimide hydrochloride (EDC)/0.1 M N-hydroxy succinimide (NHS) at a flow rate of 10 μl/min. For capture of streptavidin, protein was diluted to 0.2 mg/ml in 10 mM sodium acetate (pH 4.5) and captured by injecting 70 μl onto the activated chip surface. Residual activated groups were blocked with a 7 min injection of 1 M ethanolamine (pH 8.5). Biotinylated protein stock was diluted 1:100 in HBS-N and captured on one flow cell at 5 μl/min to a level of 1000-1500 RU. Buffer was changed to PBS/0.05% Tween 20 and a dilution series of the peptides was prepared in this buffer with a final DMSO concentration of 0.5%. […] In all cases a titration was performed with either seven 2-fold dilutions or five 3-fold dilutions. The SPR analysis was run at 25° C. with a flow rate of 50-80 μl/min with 60 seconds association and a suitable disassociation period (100-900 seconds). Data were corrected for DMSO excluded volume effects. All data were double-referenced for blank injections and reference surface using standard processing procedures and data processing and kinetic fitting were performed using Scrubber software, version 2.0c (BioLogic Software). Data were fitted using mass transport model allowing for mass transport effects where appropriate.

[5] = target: T1, Recombinant biotinylated human …; assay: inhibition of 5 nM P-selectin binding to HL-60 cells (PSGL1), mirrorball cytometer, geomean of n=3
Description: Bicycle test samples, SelG1 (Crizanlizumab) were serially diluted maintaining 0.5% DMSO in assay buffer (25 mM HEPES, 121 mM NaCl, 5.4 mM KCl, 0.8 mM MgCl₂, 1.8 mM CaCl₂), 6 mM NaHCO₂, 5.5 mM glucose, 1% BSA, pH7.4) and transferred to 384 well clear bottom plates (Corning, 3712) with a final volume of 6 μL. […], of P-Selectin in imaging buffer (25 mM HEPES, 121 mM NaCl, 5.4 mM KCl, 0.8 mM MgCl₂, 1.8 mM CaCl₂), 6 mM NaHCO₂, 5.5 mM glucose, pH7.4) was added to give a 5 nM final concentration and incubated at room temperature for 15 minutes. HL-60 cells (ATCC, CCL-240) mixed with 1 μg/mL far red labelled wheat germ agglutinin (WGA, ThermoFisher W21404) and 1 μg/mL AlexaFluor 488-streptavidin (Invitrogen S11223) were added to the plate and incubated for 2 hours at room temperature in the absence of light. Staining and antibody binding were quantified by simultaneously scanning the microplates with 488 nm and 640 nm lasers on a mirrorball microplate cytometer, AF488 on FL2 triggering on AF647-WGA on FL4. Data was analysed in Dotmatics, using a four parameter logistic fit to generate IC50 values and % response. Percent inhibition was calculated using 100−% response at top concentration.

[6] = target: T1, Recombinant biotinylated human …; assay: SPR (Biacore), biotinylated human P-selectin captured on streptavidin chip, peptide as analyte; peptide BCY5459, a separate peptide number
Description: as §1

[7] = target: T1, Recombinant biotinylated human …; assay: SPR (Biacore), biotinylated human P-selectin captured on streptavidin chip, peptide as analyte; peptide BCY10194 (A-(SEQ ID NO: 6)-A)
Description: as §1

[8] = target: T1, Recombinant biotinylated human …; assay: SPR (Biacore), biotinylated human P-selectin captured on streptavidin chip, peptide as analyte; peptide BCY5458, a separate peptide number
Description: as §1

[9] = target: T1, Recombinant biotinylated human …; assay: SPR (Biacore), biotinylated human P-selectin captured on streptavidin chip, peptide as analyte; peptide BCY5463, a separate peptide number
Description: as §1

[10] = target: T1, Recombinant biotinylated human …; assay: SPR (Biacore), biotinylated human P-selectin captured on streptavidin chip, peptide as analyte; peptide BCY12259, a separate peptide number
Description: as §1

[11] = target: T1, Recombinant biotinylated human …; assay: SPR (Biacore), biotinylated human P-selectin captured on streptavidin chip, peptide as analyte; peptide BCY5454, a separate peptide number
Description: as §1

B1: BCY12257 (peptide)
peptide: ACDADWCDVPSLPCAK(Pent4ynoyl)-NH2
modifications: linker 2-7-14 via TCAZ″; not fully specified; also: tandem dimer of 2 copies via central hinge C (GTA) and spacer S1A n=23 joined to K(Pya)
[1]
  Kd: 11.6 nM

B2: BCY5462 (peptide)
peptide: Pent4ynoyl-ACYMEWCDVTDYGCA-NH2
modifications: linker 2-7-14 via TATA; also: tetramer of 4 copies via central hinge A (Tet) and spacer S1A n=10 joined to N-terminal Pya
[2]
  Kd: 88 nM

B3: BCY12261 (peptide)
peptide: ACDADWCDVPSLPCAK(Pent4ynoyl)-NH2
modifications: linker 2-7-14 via TCAZ″; not fully specified; also: tetramer of 4 copies via central hinge A (Tet) and spacer S1A n=23 joined to K(Pya)
[3]
  Kd: 0.019 nM

B4: BCY11279 (peptide)
peptide: Ac-ACYME[1Nal]CDVTDYGCA-NH2
modifications: linker 2-7-14 via TATA
notes: Monomeric bicyclic peptide
[4]
  Kd: 690 nM
[5]
  IC50: > 3540 nM
  Inhibition at top concentration (%): 24%

B5: BCY5459 (peptide)
peptide: Pent4ynoyl-ACYMEWCDVTDYGCA-NH2
modifications: linker 2-7-14 via TATA; also: trimer of 3 copies via central hinge B (TCA) and spacer S1A n=23 joined to N-terminal Pya
[6]
  Kd: 169 nM

B6: BCY10194 (peptide)
peptide: ACYMEWCDVTDYGCA-NH2
modifications: linker 2-7-14 via TATA
notes: Monomeric bicyclic peptide
[7]
  Kd: 9.5 µM

B7: BCY5458 (peptide)
peptide: Pent4ynoyl-ACYMEWCDVTDYGCA-NH2
modifications: linker 2-7-14 via TATA; also: trimer of 3 copies via central hinge B (TCA) and spacer S1A n=10 joined to N-terminal Pya
[8]
  Kd: 400 nM

B8: BCY5463 (peptide)
peptide: Pent4ynoyl-ACYMEWCDVTDYGCA-NH2
modifications: linker 2-7-14 via TATA; also: tetramer of 4 copies via central hinge A (Tet) and spacer S1A n=23 joined to N-terminal Pya
[9]
  Kd: 53 nM

B9: BCY12259 (peptide)
peptide: ACDADWCDVPSLPCAK(Pent4ynoyl)-NH2
modifications: linker 2-7-14 via TCAZ″; not fully specified; also: trimer of 3 copies via central hinge B (TCA) and spacer S1A n=23 joined to K(Pya)
[10]
  Kd: 0.233 nM

B10: BCY9717 (peptide)
peptide: Ac-CYMEWCDVTDYGC-NH2
modifications: linker 1-6-13 via TATA
notes: Monomeric bicyclic peptide; also called BCY09717
[4]
  Kd: 7600 nM
[5]
  IC50: > 10900 nM
  Inhibition at top concentration (%): 20%

B11: BCY11648 (peptide)
peptide: ACDADWCDVPSLPCA-NH2
modifications: linker 2-7-14 via TCAZ″
notes: Monomeric bicyclic peptide
[4]
  Kd: 128 nM
[5]
  IC50: > 117 nM
  Inhibition at top concentration (%): 37%

B12: BCY5454 (peptide)
peptide: Pent4ynoyl-ACYMEWCDVTDYGCA-NH2
modifications: linker 2-7-14 via TATA; also: tandem dimer of 2 copies via central hinge C (GTA) and spacer S1A n=10 joined to N-terminal Pya
[11]
  Kd: 400 nM

B13: SelG1 (Crizanlizumab) (antibody, V domains shown)
VH: QVQLVQSGAEVKKPGASVKVSCKVSGYTFTSYDINWVRQAPGKGLEWMGWIYPGDGSIKYNEKFKGRVTMTVDKSTDTAYMELSSLRSEDTAVYYCARRGEYGNYEGAMDYWGQGTLVTVSS
VL: DIQMTQSPSSLSASVGDRVTITCKASQSVDYDGHSYMNWYQQKPGKAPKLLIYAASNLESGVPSRFSGSGSGTDFTLTISSLQPEDFATYYCQQSDENPLTFGGGTKVEIK
[5]
  IC50: 4.75 nM
  Inhibition at top concentration (%): 96%

B14: BCY12027 (peptide)
peptide: ACDAD[1Nal]CDVPSLPCA-NH2
modifications: linker 2-7-14 via TCAZ
notes: Monomeric bicyclic peptide
[4]
  Kd: 5.36 nM
[5]
  IC50: > 36.8 nM
  Inhibition at top concentration (%): 36%
